From article doi:10.1101/2022.07.22.501112 (2022) come the findings set out here.

Numbered stars: 1 amine (or outer) side, 2 acyl side, 3 side chain; on linkers, the order of the positions; unused ones are H or OH. Square brackets hold non-standard residues; d marks the D form. Ends that are not written are not given here. Lys(Me3) = C[N+](C)(C)CCCC[C@H](N)C(=O)O; Ethylenediamine = C(CN[*:2])N[*:1]; 5‑FAM = fluorescent label

The assay deals with T1, E. coli expressed BAHD1(aa:588-780) (UniProt Q8TBE0 588-780).
T1 chain: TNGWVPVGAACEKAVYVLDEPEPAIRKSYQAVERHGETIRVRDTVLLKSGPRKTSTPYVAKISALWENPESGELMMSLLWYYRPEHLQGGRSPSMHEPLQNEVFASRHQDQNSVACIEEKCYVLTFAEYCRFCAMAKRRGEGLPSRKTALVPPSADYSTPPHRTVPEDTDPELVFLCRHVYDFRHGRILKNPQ
As to the kind of experiment: FP.

B1: H3 16-35 K27me3 peptide (peptide)
peptide: PRKQLATKAAR[Lys(Me3)]SAPATGG-{Ethylenediamine-4‑Abu-5‑FAM}
For the molecule B1, the Kd is 700 nM.
